This note sets out measurements from patent US20150355199A1 (ROCHE DIAGNOSTICS OPERATIONS, published 2015).

In one assay the target is T1, CFHR5-GS-Avi-GS-His8 (human, UniProt Q9BXR6 19-569).
T1 construct: Tagged recombinant protein from HEK293 cells; also called recombinant CFHR5
T1 sequence: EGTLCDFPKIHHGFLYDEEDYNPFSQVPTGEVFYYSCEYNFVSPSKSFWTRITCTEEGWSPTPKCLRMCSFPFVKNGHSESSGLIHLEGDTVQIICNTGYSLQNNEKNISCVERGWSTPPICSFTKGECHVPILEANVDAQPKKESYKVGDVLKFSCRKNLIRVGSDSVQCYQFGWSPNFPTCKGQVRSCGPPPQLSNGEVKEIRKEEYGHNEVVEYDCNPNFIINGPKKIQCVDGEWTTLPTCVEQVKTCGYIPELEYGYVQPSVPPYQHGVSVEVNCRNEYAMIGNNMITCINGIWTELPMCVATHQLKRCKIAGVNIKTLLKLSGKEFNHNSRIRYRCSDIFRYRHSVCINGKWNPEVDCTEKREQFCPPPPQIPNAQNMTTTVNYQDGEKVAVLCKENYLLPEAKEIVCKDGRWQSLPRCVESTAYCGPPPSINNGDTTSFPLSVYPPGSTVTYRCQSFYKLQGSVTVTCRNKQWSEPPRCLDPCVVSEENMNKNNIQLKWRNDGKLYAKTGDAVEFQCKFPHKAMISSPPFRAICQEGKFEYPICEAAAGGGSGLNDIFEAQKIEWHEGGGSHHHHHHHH
Description: SPR (BiaCore), antibody captured by rabbit anti-mouse IgG on CM5 chip, antigen in solution. Here is the method:
(§1) The antibodies MAB<CFH/CFHR1>M-L20/3, MAB<CFHR1>M-442127, MAB<CFHR1>M-4.1.3 and MAB<CFHR1>M-5.1.5 were analyzed on the BiaCore. The chip CM5 coated with a rabbit anti-Mouse IgG was used to bind the purified monoclonal mouse antibodies. In the next step native CFH or the recombinant CFHR1, CFHR2, CFHR3, CFHR4B or CFHR5 proteins according to SEQ ID No.: 9 to 13 were added to determine the binding affinities of the different antibodies.
(Surface plasmon resonance follows binding to a sensor surface in real time, without labels.)

Assay [1] has as its target T2, recombinant CFHR1-1-5 (tag-less, full-length mature human complement factor H-related protein 1) (human, UniProt Q03591 19-330).
T2 construct: also called recCFHR1
T2 sequence: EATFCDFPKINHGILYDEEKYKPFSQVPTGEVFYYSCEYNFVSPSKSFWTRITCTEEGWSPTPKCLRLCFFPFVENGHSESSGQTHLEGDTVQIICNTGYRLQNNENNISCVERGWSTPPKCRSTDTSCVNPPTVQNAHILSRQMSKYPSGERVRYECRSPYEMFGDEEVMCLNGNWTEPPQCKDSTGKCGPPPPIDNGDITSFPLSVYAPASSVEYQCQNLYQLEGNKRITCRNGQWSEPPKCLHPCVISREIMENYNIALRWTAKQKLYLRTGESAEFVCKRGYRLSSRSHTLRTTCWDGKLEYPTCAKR
The assay is described as above. Here is the method: as §1

In assay [2] the target is T3, native human complement factor H (CFH) (human, UniProt P08603 19-1231).
T3 construct: Native CFH; also called native CFH; serum-purified CFH
The description is as above. Here is the method: as §1

The target of a further assay is T4, CFHL1-GS-Avi-GS-His8 (human, UniProt P08603 19-445).
T4 construct: also called complement factor H isoform 2
Description: SPR (BiaCore), antibody captured by rabbit anti-mouse IgG on CM5 chip; n.d. = not detectable. Here is the method:
as §1

In another assay the target is T5, CFHR2-GS-Avi-GS-His8 (human).
T5 construct: Tagged recombinant protein from HEK293 cells; also called recombinant CFHR2
T5 chain: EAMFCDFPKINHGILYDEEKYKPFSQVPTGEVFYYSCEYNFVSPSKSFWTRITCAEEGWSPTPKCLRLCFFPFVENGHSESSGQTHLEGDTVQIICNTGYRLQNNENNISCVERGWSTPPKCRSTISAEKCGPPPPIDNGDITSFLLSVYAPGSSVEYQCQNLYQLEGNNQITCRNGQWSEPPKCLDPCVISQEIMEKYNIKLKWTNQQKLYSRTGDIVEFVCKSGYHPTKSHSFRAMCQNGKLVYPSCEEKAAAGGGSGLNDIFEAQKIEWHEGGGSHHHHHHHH
The description is as above. Here is the method:
as §1

A further assay has as its target T6, CFHR3-GS-Avi-GS-His8 (human, UniProt Q02985 19-330).
T6 construct: Tagged recombinant protein from HEK293 cells; also called recombinant CFHR3
T6 sequence: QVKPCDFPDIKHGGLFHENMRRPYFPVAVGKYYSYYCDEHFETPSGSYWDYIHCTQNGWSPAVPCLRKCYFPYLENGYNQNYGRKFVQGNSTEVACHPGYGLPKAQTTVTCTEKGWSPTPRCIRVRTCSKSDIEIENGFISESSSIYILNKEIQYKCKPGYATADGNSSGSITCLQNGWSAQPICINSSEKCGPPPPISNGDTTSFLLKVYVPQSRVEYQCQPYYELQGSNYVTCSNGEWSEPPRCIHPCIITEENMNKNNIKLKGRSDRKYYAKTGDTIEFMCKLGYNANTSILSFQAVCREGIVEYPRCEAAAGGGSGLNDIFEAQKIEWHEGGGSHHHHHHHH
Described as above. Here is the method:
as §1

The target in assay [3] is T7, CFHR4-GS-Avi-GS-His8 (CFHR4 Variant B) (human).
T7 construct: Tagged recombinant protein from HEK293 cells; also called CFHR4B; recombinant CFHR4B
T7 chain: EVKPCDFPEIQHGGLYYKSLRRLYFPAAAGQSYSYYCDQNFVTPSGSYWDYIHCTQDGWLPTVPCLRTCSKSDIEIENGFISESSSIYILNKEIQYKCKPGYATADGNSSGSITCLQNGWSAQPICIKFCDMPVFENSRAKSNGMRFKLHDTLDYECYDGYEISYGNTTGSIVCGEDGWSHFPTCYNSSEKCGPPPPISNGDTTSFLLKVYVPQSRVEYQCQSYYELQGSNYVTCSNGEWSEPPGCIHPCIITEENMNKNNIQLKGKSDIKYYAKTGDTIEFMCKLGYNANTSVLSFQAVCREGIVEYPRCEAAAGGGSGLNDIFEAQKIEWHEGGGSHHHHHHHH
Described as above. Here is the method: as §1

B1: MAB<CFH/CFHR1>M-L20/3 (antibody, V domains shown)
VH: EVLLQQSGPELVKPGASVKIPCKASGYTFTDYNMDWVKQSHGKSLEWIGDINPNNGFTIYNQKFKGKATLTVDKSSSTAYMELRSLTSEDTAIYYCAINWDWFAYWGQGTLVTVSA
VL: DVLMTQTPLSLPVSLGDQASISCRSSQSIVHNNGNTYLEWYLLKPGQSPKLLIYKVSNRFSGVPDRFSGSGSGTDFTLKISRVEAEDLGVYYCFQGSHVPYTFGGGTKLEIKR
notes: Bought monoclonal mouse IgG; also called anti-Complement Factor H, Clone: L20/3; Thermo Scientific cat. no; GAU 020-03-02
Usually Kd stands for the concentration at which binding is half-saturated. For the molecule B1, the Kd in the assay with CFHR5-GS-Avi-GS-His8 was determined as 10 nM; in assay [1], 0.1 nM; in assay [2], 8 nM. The binding result (in the assay with CFHL1-GS-Avi-GS-His8; with CFHR2-GS-Avi-GS-His8; in the assay with CFHR3-GS-Avi-GS-His8; in assay [3]) was “no binding” each time.
